Data reported in US20080058263A1 (published 2008).
Where a chain is given by its changes, count along the chain named.

T1: VEGFR-3-Fc (UniProt P35916 25-328)
T1 construct: domain: first three Ig domains; conditioned supernatant of 293T cells; also called VEGFR-3-Fc fusion protein; not shown: Fc fragment of the pIg vector
T1 sequence (looked up): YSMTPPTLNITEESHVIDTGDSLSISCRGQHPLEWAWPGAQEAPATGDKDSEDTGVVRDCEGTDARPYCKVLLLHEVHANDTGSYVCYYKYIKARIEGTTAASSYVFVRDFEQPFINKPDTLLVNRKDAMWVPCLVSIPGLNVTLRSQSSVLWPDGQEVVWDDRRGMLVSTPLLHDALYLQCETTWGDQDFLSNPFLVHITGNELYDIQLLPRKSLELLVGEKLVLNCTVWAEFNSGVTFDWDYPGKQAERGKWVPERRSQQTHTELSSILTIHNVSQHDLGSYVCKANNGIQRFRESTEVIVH

B1: 13-11 (ligand)
chain: GQNHHEVVKFMDVYQRSYCHPIETLVDIFQEYPDEIEYIFKPPCVSVYRCGGCCNSEGLQCVPTEESNITMQIMRITVPLSQGPKPVTISFLQHNKCECRPKKD
B2: 14-1 (ligand)
chain: GQNHHEVVKFMDVYQRSYCHPIETLVDIFQEFGVATNTFFKPSCVPLMRCGGCCNDEGLECVPTEESNITMQIMRIKPHQGQHIGEMSFLQHNKCECRPKKD
B3: 14-3 (ligand)
chain: B2 chain with D56S, E60Q
B4: 14-5 (ligand)
chain: B2 chain with L90A, Q91N, N93T, K94S, E96R, R98M, P99S, K101L
B5: 14-7 (ligand)
chain: B2 chain with D56S, E60Q, L90A, Q91N, N93T, K94S, E96R, R98M, P99S, K101L
B6: 31-1 (ligand)
chain: GQNHHEVVKSIDNEWRKTQCMPIETLVDIFQEYPDEIEYIFKPSCVPLMRCGGCCNDEGLECVPTEESNITMQIMRIKPHQGQHIGEMSFLQHNKCECRPKKD
B7: 22-13 (ligand)
chain: AHYNTEILKSIDNEWRKTQCMPREVCIDVGKEFGVATNTFFKPPCVSVYRCGGCCNDEGLECVPTEESNITMQIMRITVPLSQGPKPVTISFANHTSCRCMSKLD
B8: 84-7 (ligand)
chain: AHYNTEILKFMDVYQRSYCHPIETLVDIFQEFGVATNTFFKPSCVPLMRCGGCCNSEGLQCVPTEESNITMQIMRIKPHQGQHIGEMSFANHTSCRCMSKLD
B9: 22-15 (ligand)
chain: B7 chain with D57S, E61Q
B10: 72-1 (ligand)
chain: GQNHHEVVKSIDNEWRKTQCMPREVCIDVGKEFGVATNTFFKPPCVSVYRCGGCCNDEGLECVPTEESNITMQIMRIKPHQGQHIGEMSFLQHNKCECRPKKD
B11: 72-3 (ligand)
chain: B10 chain with D57S, E61Q
B12: 24-5 (ligand)
chain: AHYNTEILKSIDNEWRKTQCMPREVCIDVGKEFGVATNTFFKPSCVPLMRCGGCCNDEGLECVPTEESNITMQIMRIKPHQGQHIGEMSFANHTSCRCMSKLD
B13: 21-5 (ligand)
chain: B12 chain with F33Y, G34P, V35D, A36E, T37I, N38E, T39Y, F40I
B14: 21-7 (ligand)
chain: B12 chain with F33Y, G34P, V35D, A36E, T37I, N38E, T39Y, F40I, D57S, E61Q
B15: 22-5 (ligand)
chain: B12 chain with S44P, P47S, L48V, M49Y
B16: 22-7 (ligand)
chain: B12 chain with S44P, P47S, L48V, M49Y, D57S, E61Q
B17: 23-5 (ligand)
chain: AHYNTEILKSIDNEWRKTQCMPREVCIDVGKEYPDEIEYIFKPPCVSVYRCGGCCNDEGLECVPTEESNITMQIMRIKPHQGQHIGEMSFANHTSCRCMSKLD
B18: 24-1 (ligand)
chain: B12 chain with A91L, N92Q, T94N, S95K, R97E, M99R, S100P, L102K
B19: 24-3 (ligand)
chain: B12 chain with D57S, E61Q, A91L, N92Q, T94N, S95K, R97E, M99R, S100P, L102K
B20: 24-7 (ligand)
chain: B12 chain with D57S, E61Q
B21: 52-5 (ligand)
chain: AHYNTEILKSIDNEWRKTQCMPIETLVDIFQEFGVATNTFFKPPCVSVYRCGGCCNDEGLECVPTEESNITMQIMRIKPHQGQHIGEMSFANHTSCRCMSKLD
B22: 54-5 (ligand)
chain: B21 chain with P44S, S47P, V48L, Y49M
B23: 54-7 (ligand)
chain: B21 chain with P44S, S47P, V48L, Y49M, D57S, E61Q
B24: 72-5 (ligand)
chain: B10 chain with L91A, Q92N, N94T, K95S, E97R, R99M, P100S, K102L
B25: 74-5 (ligand)
chain: B12 chain with A1G, H2Q, Y3N, N4H, T5H, I7V, L8V
B26: 74-7 (ligand)
chain: B12 chain with A1G, H2Q, Y3N, N4H, T5H, I7V, L8V, D57S, E61Q
B27: 72-7 (ligand)
chain: GQNHHEVVKSIDNEWRKTQCMPREVCIDVGKEFGVATNTFFKPPCVSVYRCGGCCNSEGLQCVPTEESNITMQIMRIKPHQGQHIGEMSFANHTSCRCMSKL
B28: 31-6 (ligand)
chain: GQNHHEVVKSIDNEWRKTQCMPIETLVDIFQEYPDEIEYIFKPSCVPLMRCGGCCNDEGLECMNTSTSYLSKTLFEIKPHQGQHIGEMSFANHTSCRCMSKLD
B29: 13-4 (ligand)
chain: GQNHHEVVKFMDVYQRSYCHPIETLVDIFQEYPDEIEYIFKPPCVSVYRCGGCCNSEGLQCMNTSTSYLSKTLFEIKPHQGQHIGEMSFLQHNKCECRPKKD
B30: 13-14 (ligand)
chain: GQNHHEVVKFMDVYQRSYCHPIETLVDIFQEYPDEIEYIFKPPCVSVYRCGGCCNDEGLECMNTSTSYLSKTLFEITVPLSQGPKPVTISFANHTSCRCMSKLD

What follows are binders tested against T2, VEGFR-2-Fc (UniProt P35968 20-322) (assay: receptor-Fc IP).
T2 construct: domain: first 3 Ig domains; conditioned supernatant of 293T cells; also called VEGFR-2-Fc fusion protein; not shown: Fc fragment of the pIg vector
In short: (§1)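 Binding of ligand from sample supernatant measured by pentahistidine-antibody immunoprecipitation. IP mix: PBS with 1.5% BSA, 0.06% Tween 20, 3 μg/ml heparin and 400 ng/ml fusion protein, added 1:2 to sample supernatant.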

T2 sequence (P35968 20-322): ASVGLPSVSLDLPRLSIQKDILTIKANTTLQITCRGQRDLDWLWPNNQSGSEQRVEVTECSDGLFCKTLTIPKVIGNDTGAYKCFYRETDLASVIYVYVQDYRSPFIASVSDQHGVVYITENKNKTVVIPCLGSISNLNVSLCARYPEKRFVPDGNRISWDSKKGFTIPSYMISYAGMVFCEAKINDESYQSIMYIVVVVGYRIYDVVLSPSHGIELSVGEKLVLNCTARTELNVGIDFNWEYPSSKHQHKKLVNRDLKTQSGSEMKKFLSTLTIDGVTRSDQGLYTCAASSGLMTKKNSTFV

Binder	binding result
B1	no binding
B2	no binding
B3	binds
B4	no binding
B5	binds
B6	no binding
B7	no binding
B8	no binding
B9	no binding
B10	no binding
B11	no binding
B12	no binding
B13	no binding
B14	no binding
B15	no binding
B16	no binding
B17	no binding
B18	no binding
B19	no binding
B20	no binding
B21	no binding
B22	no binding
B23	no binding
B24	no binding
B25	no binding
B26	no binding
B27	no binding
B28	no binding
B29	no binding
B30	no binding

Each binder was assayed against T1, VEGFR-3-Fc (assay: receptor-Fc IP).
In short: as §1

Binder	binding result
B1	no binding
B2	no binding
B3	no binding
B4	no binding
B5	no binding
B6	no binding
B7	no binding
B8	no binding
B9	no binding
B10	no binding
B11	no binding
B12	no binding
B13	no binding
B14	no binding
B15	no binding
B16	no binding
B17	no binding
B18	no binding
B19	no binding
B20	no binding
B21	no binding
B22	no binding
B23	no binding
B24	no binding
B25	no binding
B26	no binding
B27	no binding
B28	no binding
B29	no binding
B30	no binding

These binders were tested against T3, VEGFR-1-Fc (UniProt P17948 27-338) (assay: receptor-Fc IP).
T3 construct: domain: first three Ig domains; expressed in Drosophila S2 cells, purified on Protein A sepharose; also called VEGFR-1-Fc fusion protein; not shown: Fc fragment from the Signal-pIgPlus vector
In short: as §1

T3 sequence (P17948 27-338): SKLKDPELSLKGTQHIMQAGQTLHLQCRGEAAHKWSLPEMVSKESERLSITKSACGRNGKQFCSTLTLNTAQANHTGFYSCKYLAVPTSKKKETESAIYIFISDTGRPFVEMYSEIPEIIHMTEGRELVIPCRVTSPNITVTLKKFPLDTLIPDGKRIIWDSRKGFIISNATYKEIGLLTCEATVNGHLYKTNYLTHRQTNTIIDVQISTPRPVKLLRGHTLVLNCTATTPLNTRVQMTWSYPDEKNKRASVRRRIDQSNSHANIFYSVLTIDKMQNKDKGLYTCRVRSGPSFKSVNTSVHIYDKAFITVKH

Binder	binding result
B1	binds
B2	binds
B3	binds
B4	binds
B5	no binding
B6	no binding
B7	no binding
B8	no binding
B9	no binding
B10	no binding
B11	no binding
B12	no binding
B13	no binding
B14	no binding
B15	no binding
B16	no binding
B17	no binding
B18	no binding
B19	no binding
B20	no binding
B21	no binding
B22	no binding
B23	no binding
B24	no binding
B25	no binding
B26	no binding
B27	no binding
B28	no binding
B29	no binding
B30	no binding
